Data: the RNAGym collection of RNA variant scans (doi:10.1073/pnas.2313332121)
This sample holds only a part of the variants without activity.

B1: TPR 5TU (parent)
chain: GGAUCUUCUCGAUCUAACAAAAAAGACAAAUCUGCCACAAAGCUUGAGAGCAUCUUCGGAUGCAGAGGCGGCAGCCUUCGGUGGCGCGAUAGCGCCAACGUUCUCAACUAUGACACGCAAAACGCGUGCUCCGUUGAAUGGAGUUUAUCAUG

Variants of: B1
Test: polymerase ribozyme fitness, log enrichment relative to wild type (log ratio); higher = more active; in vitro selection for triplet polymerase activity
How it was run: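 Streptavidin-bead capture of gel-excised extended constructs, followed by RT-PCR, closed a single triplicate in vitro selection round. That round began by annealing PCR-built, transcribed mutant libraries of each subunit of a heterodimeric triplet polymerase ribozyme with a biotinylated primer, the partner subunit and triplets, then incubating them frozen at −7 °C. After Illumina sequencing of inputs and outputs, genotypes needed ≥10 input reads and ≥1 read per output. Fitness is the base-2 logarithm of genotype enrichment over wild-type enrichment, using inverse-variance-weighted replicate averages.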

Row | Variant | polymerase ribozyme fitness (log ratio)
1 | U7G C75G G84A G141A | ≤ -4.2
2 | U9A C87A | ≤ -4.2
3 | U7A C10G U55A C72U G94A U151A | ≤ -4.2
4 | C10A C93U G140C | ≤ -4.2
5 | C8G A28G U61A U104A A110U A120G A138C | ≤ -4.2
6 | U7C C8G A30C C85G U134A | ≤ -4.2
7 | C8A U31A U56G C63A G68U C99A G128U | ≤ -4.2
8 | C8A A30U C43G U144C | ≤ -4.2
9 | C8G A147C | ≤ -4.2
10 | U7G A23G C32A A115G | ≤ -4.2
11 | C8U A16U A21C G67U C87U | ≤ -4.2
12 | C10A A66U G81A G94U U134A | ≤ -4.2
13 | C10A C54G A73U A120U | ≤ -4.2
14 | U9G A29U U45G C75A G88U C96A G141A | ≤ -4.2
15 | U7G C96U C129U A137G | ≤ -4.2
16 | C8A C32A G62A U82G G143A | ≤ -4.2
17 | C8G G25C U53G C63U C108A | ≤ -4.2
18 | U7C U45G G83C G128U C132G A147C | ≤ -4.2
19 | C8U A22U A37C C57G C99A U148A G152A | ≤ -4.2
20 | U7G G48A G59A A60G A97G | -3.81
21 | C10A A41C C76A A91U C96G A121C U127G | ≤ -4.2

Row | Variant | polymerase ribozyme fitness (log ratio)
22 | C8U G11C A23C A60G G94U G136U U144A | ≤ -4.2
23 | C8G U15C A52G C57G G59U C87G | -3.95
24 | C10A A12G A17U C32A C96U A110U C116U A147C | ≤ -4.2
25 | C10A C93G | ≤ -4.2
26 | C8U C95U C116G U135A | -3.94
27 | C8U A17G A21U C57U G80A C96G | ≤ -4.2
28 | U7C A16C C35U C63U A121G G133C | ≤ -4.2
29 | C8U U33A C38U G62A | ≤ -4.2
30 | C8A A26U | -3.66
31 | C8A A17U A39U C85U U139A | ≤ -4.2
32 | C10A A17C G34A A91C U102G G140U | -3.67
33 | U7A C36U C95G | ≤ -4.2
34 | U9G A19C A23G A39G C93G U139A G152U | ≤ -4.2
35 | U9C C14U C57G C93G G140U | ≤ -4.2
36 | C8U C99A | -3.69
37 | C8G A41U A49C G62A C79U C85U C96U C114G A115G | ≤ -4.2
38 | C10A C54U G67C C85A A107U | ≤ -4.2
39 | C8A A12U U15G G62U G124A | ≤ -4.2
40 | C8U C54A | -3.8
41 | C8U C18G G50C G58U A73G C76A C93A C116A A120C | ≤ -4.2
42 | C8U A52U C54U G83A C118A U127G | ≤ -4.2

Row | Variant | polymerase ribozyme fitness (log ratio)
43 | C8A U53A | -3.45
44 | U7G C27A C93U A107G A150U | ≤ -4.2
45 | C8G G84A | -3.43
46 | U7A U9C A20G U53G C87U A98U | -3.99
47 | C8U G67A U82G U90G C96A C105A C116A C125U U135A A147C U148G | ≤ -4.2
48 | C10A A21G A29G C51U A52G U78C C95A A122U U146G | ≤ -4.2
49 | C10A C14U A30U C51A C57G G84A | ≤ -4.2
50 | C8G A24U G25U G80A C96G C125A | ≤ -4.2
51 | U7C C35U U127G | -3.61
52 | U7C A23U C87A A89G A115U U134A | ≤ -4.2
53 | U9G C27G U55A C57A G59A | ≤ -4.2
54 | U9A C93G | ≤ -4.2
55 | C8U U56G G59A G65A G84U A91G | ≤ -4.2
56 | U7C U53G G86C A106G A150C | ≤ -4.2
57 | U7G A26U U56G G59C G83A C96U A138C | ≤ -4.2
58 | C8U G74U C79U C93A G143U | ≤ -4.2
59 | U7C C18G G25C A28U C38G U55A G70C G94C | ≤ -4.2
60 | U7G U15G U56G C93A A115C U130G | ≤ -4.2
61 | C8G G50A A66C G84A | ≤ -4.2
62 | C8U A21C A28U U53A U77G G88U U145G A150C | ≤ -4.2
63 | C8U A29G G62A C93U C95A U144A | ≤ -4.2

Row | Variant | polymerase ribozyme fitness (log ratio)
64 | U9C C43G G65A G67C C95A | -4.09
65 | U9C A37C U55G A66C G70C C76A C131U | ≤ -4.2
66 | C8G C10G C14G A41C G83U A119U G141C | ≤ -4.2
67 | U7C G68U A73G U82A G92A U101C C116A A137C | ≤ -4.2
68 | U7C G48U G84A G117C | ≤ -4.2
69 | U9A A23U C32G C54G G92U U101C G140U | ≤ -4.2
70 | C8G U13A U33G G71A G74A C87G C96A C105A | ≤ -4.2
71 | U9A U13A A29G C96A C132A | ≤ -4.2
72 | C8U G94A | -3.24
73 | U7A U45C G50U G83A A89U G94C A115U G141A | ≤ -4.2
74 | C8U C35U G80A G83A U102G U145C U146C | ≤ -4.2
75 | U7A C10G C32A U33A G50C G83U A91G U102C | ≤ -4.2
76 | U7A G58C | -3.68
77 | U7C G50A A66G | ≤ -4.2
78 | C8U A17G A30U C95U G126A U148G | ≤ -4.2
79 | C10A C14G A19U A30C C93U | ≤ -4.2
80 | U7G A26C U44A G74C A115C | ≤ -4.2
81 | C8A U55A C79U G84A C108G G124A | ≤ -4.2
82 | U7C A16U G92C C116G | -3.77
83 | C8G C57A G84U C114U U148C A150C | ≤ -4.2
